Consider one substance from article doi:10.1101/2024.10.10.617581.

The target in this assay is Ib, membrane-binding component of the Iota toxin from Clostridium perfringens (N-terminal cleaved, active) (Clostridium perfringens). Nature of the assay: cryo-EM structure.

The substance “Ib, membrane-binding component of the Iota toxin from Clostridium perfringens (N-terminal cleaved, active) (natural protein)” gave a stoichiometry N of 7.

Usually stoichiometry N stands for the number of molecules, sites or subunits per partner or assembly.
